The record followed here is patent publication US20070078092A1 (CUREGENICS, published 2007).

Numbered stars: 1 amine (or outer) side, 2 acyl side, 3 side chain; on linkers, the order of the positions; unused ones are H or OH. Square brackets hold non-standard residues; d marks the D form. * marks the point of attachment. Cholesteryloxycarbonyl = CC(C)CCC[C@@H](C)[C@H]1CC[C@H]2[C@@H]3CC=C4C[C@@H](OC(=O)*)CC[C@]4(C)[C@H]3CC[C@]12C; Ser(Me) = COC[C@H](N[*:1])C(=O)[*:2]; hLeu = CC(C)CC[C@H](N)C(=O)O; Orn = NCCC[C@H](N)C(=O)O; Nva = CCC[C@H](N)C(=O)O; Dap = NC[C@H](N)C(=O)O

First the molecules themselves.
B1: PTR 6374 (peptide)
peptide: XPRXYXX
modifications: N-terminal Cholesteryl-O-CO-; Nva, Dap, Hol; C-terminal NH2
B2: PTR 6382 (peptide)
peptide: Cholesteryloxycarbonyl-[Orn]PR[Nva]Y[Dap][hLeu]-NH2
SMILES: CCC[C@H](NC(=O)[C@H](CCCNC(=N)N)NC(=O)[C@@H]1CCCN1C(=O)[C@H](CCCN)NC(=O)O[C@H]1CC[C@@]2(C)C(=CC[C@H]3[C@@H]4CC[C@H]([C@H](C)CCCC(C)C)[C@@]4(C)CC[C@@H]32)C1)C(=O)N[C@@H](Cc1ccc(O)cc1)C(=O)N[C@@H](CN)C(=O)N[C@@H](CCC(C)C)C(N)=O
B3: PTR 6336 (peptide)
peptide: Cholesteryloxycarbonyl-GGGGGGRPR[Nva]Y[Dap][hLeu]-NH2
SMILES: CCC[C@H](NC(=O)[C@H](CCCNC(=N)N)NC(=O)[C@@H]1CCCN1C(=O)[C@H](CCCNC(=N)N)NC(=O)CNC(=O)CNC(=O)CNC(=O)CNC(=O)CNC(=O)CNC(=O)O[C@H]1CC[C@@]2(C)C(=CC[C@H]3[C@@H]4CC[C@H]([C@H](C)CCCC(C)C)[C@@]4(C)CC[C@@H]32)C1)C(=O)N[C@@H](Cc1ccc(O)cc1)C(=O)N[C@@H](CN)C(=O)N[C@@H](CCC(C)C)C(N)=O
B4: PTR 6386 (peptide)
peptide: Cholesteryloxycarbonyl-[Orn]P[Orn][Nva]Y[Dap][hLeu]-NH2
SMILES: CCC[C@H](NC(=O)[C@H](CCCN)NC(=O)[C@@H]1CCCN1C(=O)[C@H](CCCN)NC(=O)O[C@H]1CC[C@@]2(C)C(=CC[C@H]3[C@@H]4CC[C@H]([C@H](C)CCCC(C)C)[C@@]4(C)CC[C@@H]32)C1)C(=O)N[C@@H](Cc1ccc(O)cc1)C(=O)N[C@@H](CN)C(=O)N[C@@H](CCC(C)C)C(N)=O
B5: PTR 6356 (peptide)
peptide: {Cholesteryl‑O‑CO‑(CH2)2‑CO}-[dK][dK][dK]RPR[Nva]Y[Dap][hLeu]-NH2
B6: PTR 6384 (peptide)
peptide: H-[Orn]P[Orn][Nva]Y[Dap][hLeu]-NH2
SMILES: CCC[C@H](NC(=O)[C@H](CCCN)NC(=O)[C@@H]1CCCN1C(=O)[C@@H](N)CCCN)C(=O)N[C@@H](Cc1ccc(O)cc1)C(=O)N[C@@H](CN)C(=O)N[C@@H](CCC(C)C)C(N)=O
B7: PTR 6380 (peptide)
peptide: H-[Orn]PR[Nva]Y[Dap][hLeu]-NH2
SMILES: CCC[C@H](NC(=O)[C@H](CCCNC(=N)N)NC(=O)[C@@H]1CCCN1C(=O)[C@@H](N)CCCN)C(=O)N[C@@H](Cc1ccc(O)cc1)C(=O)N[C@@H](CN)C(=O)N[C@@H](CCC(C)C)C(N)=O
B8: PTR 6370 (peptide)
peptide: XPHXYXX
modifications: Nva, Dap, Hol; C-terminal NH2
B9: PTR 6376 (peptide)
peptide: Cholesteryloxycarbonyl-RPH[Nva]Y[Dap][hLeu]-NH2
SMILES: CCC[C@H](NC(=O)[C@H](Cc1c[nH]cn1)NC(=O)[C@@H]1CCCN1C(=O)[C@H](CCCNC(=N)N)NC(=O)O[C@H]1CC[C@@]2(C)C(=CC[C@H]3[C@@H]4CC[C@H]([C@H](C)CCCC(C)C)[C@@]4(C)CC[C@@H]32)C1)C(=O)N[C@@H](Cc1ccc(O)cc1)C(=O)N[C@@H](CN)C(=O)N[C@@H](CCC(C)C)C(N)=O
B10: PTR 6332 (peptide)
peptide: Cholesteryloxycarbonyl-GGGGRPR[Nva]Y[Dap][hLeu]-NH2
SMILES: CCC[C@H](NC(=O)[C@H](CCCNC(=N)N)NC(=O)[C@@H]1CCCN1C(=O)[C@H](CCCNC(=N)N)NC(=O)CNC(=O)CNC(=O)CNC(=O)CNC(=O)O[C@H]1CC[C@@]2(C)C(=CC[C@H]3[C@@H]4CC[C@H]([C@H](C)CCCC(C)C)[C@@]4(C)CC[C@@H]32)C1)C(=O)N[C@@H](Cc1ccc(O)cc1)C(=O)N[C@@H](CN)C(=O)N[C@@H](CCC(C)C)C(N)=O
B11: PTR 6346 (peptide)
peptide: Cholesteryloxycarbonyl-RPR[Nva]Y[Dap][hLeu][dK][dK][dK]-NH2
SMILES: CCC[C@H](NC(=O)[C@H](CCCNC(=N)N)NC(=O)[C@@H]1CCCN1C(=O)[C@H](CCCNC(=N)N)NC(=O)O[C@H]1CC[C@@]2(C)C(=CC[C@H]3[C@@H]4CC[C@H]([C@H](C)CCCC(C)C)[C@@]4(C)CC[C@@H]32)C1)C(=O)N[C@@H](Cc1ccc(O)cc1)C(=O)N[C@@H](CN)C(=O)N[C@@H](CCC(C)C)C(=O)N[C@H](CCCCN)C(=O)N[C@H](CCCCN)C(=O)N[C@H](CCCCN)C(N)=O
B12: PTR 6366 (peptide)
peptide: XPRXYXX
modifications: Nva, Dap, Hol; C-terminal NH2
B13: PTR 6334 (peptide)
peptide: Cholesteryloxycarbonyl-GGGGGRPR[Nva]Y[Dap][hLeu]-NH2
SMILES: CCC[C@H](NC(=O)[C@H](CCCNC(=N)N)NC(=O)[C@@H]1CCCN1C(=O)[C@H](CCCNC(=N)N)NC(=O)CNC(=O)CNC(=O)CNC(=O)CNC(=O)CNC(=O)O[C@H]1CC[C@@]2(C)C(=CC[C@H]3[C@@H]4CC[C@H]([C@H](C)CCCC(C)C)[C@@]4(C)CC[C@@H]32)C1)C(=O)N[C@@H](Cc1ccc(O)cc1)C(=O)N[C@@H](CN)C(=O)N[C@@H](CCC(C)C)C(N)=O
B14: PTR 6338 (peptide)
peptide: Cholesteryloxycarbonyl-[dK][dK][dK][dK][dK][dK]RPR[Nva]Y[Ser(Me)][hLeu]-NH2
SMILES: CCC[C@H](NC(=O)[C@H](CCCNC(=N)N)NC(=O)[C@@H]1CCCN1C(=O)[C@H](CCCNC(=N)N)NC(=O)[C@@H](CCCCN)NC(=O)[C@@H](CCCCN)NC(=O)[C@@H](CCCCN)NC(=O)[C@@H](CCCCN)NC(=O)[C@@H](CCCCN)NC(=O)[C@@H](CCCCN)NC(=O)O[C@H]1CC[C@@]2(C)C(=CC[C@H]3[C@@H]4CC[C@H]([C@H](C)CCCC(C)C)[C@@]4(C)CC[C@@H]32)C1)C(=O)N[C@@H](Cc1ccc(O)cc1)C(=O)N[C@@H](COC)C(=O)N[C@@H](CCC(C)C)C(N)=O
B15: PTR 6352 (peptide)
peptide: Cholesteryloxycarbonyl-KKKRPR[Nva]Y[Dap][hLeu]-OH
SMILES: CCC[C@H](NC(=O)[C@H](CCCNC(=N)N)NC(=O)[C@@H]1CCCN1C(=O)[C@H](CCCNC(=N)N)NC(=O)[C@H](CCCCN)NC(=O)[C@H](CCCCN)NC(=O)[C@H](CCCCN)NC(=O)O[C@H]1CC[C@@]2(C)C(=CC[C@H]3[C@@H]4CC[C@H]([C@H](C)CCCC(C)C)[C@@]4(C)CC[C@@H]32)C1)C(=O)N[C@@H](Cc1ccc(O)cc1)C(=O)N[C@@H](CN)C(=O)N[C@@H](CCC(C)C)C(=O)O
B16: PTR 6348 (peptide)
peptide: Cholesteryloxycarbonyl-[dK][dK][dK]RPR[Nva]Y[Ser(Me)][hLeu]-NH2
SMILES: CCC[C@H](NC(=O)[C@H](CCCNC(=N)N)NC(=O)[C@@H]1CCCN1C(=O)[C@H](CCCNC(=N)N)NC(=O)[C@@H](CCCCN)NC(=O)[C@@H](CCCCN)NC(=O)[C@@H](CCCCN)NC(=O)O[C@H]1CC[C@@]2(C)C(=CC[C@H]3[C@@H]4CC[C@H]([C@H](C)CCCC(C)C)[C@@]4(C)CC[C@@H]32)C1)C(=O)N[C@@H](Cc1ccc(O)cc1)C(=O)N[C@@H](COC)C(=O)N[C@@H](CCC(C)C)C(N)=O
B17: PTR 6372 (peptide)
peptide: H-RP[Orn][Nva]Y[Dap][hLeu]-NH2
SMILES: CCC[C@H](NC(=O)[C@H](CCCN)NC(=O)[C@@H]1CCCN1C(=O)[C@@H](N)CCCNC(=N)N)C(=O)N[C@@H](Cc1ccc(O)cc1)C(=O)N[C@@H](CN)C(=O)N[C@@H](CCC(C)C)C(N)=O
B18: PTR 6388 (peptide)
peptide: Cholesteryloxycarbonyl-RP[Orn][Nva]Y[Dap][hLeu]-NH2
SMILES: CCC[C@H](NC(=O)[C@H](CCCN)NC(=O)[C@@H]1CCCN1C(=O)[C@H](CCCNC(=N)N)NC(=O)O[C@H]1CC[C@@]2(C)C(=CC[C@H]3[C@@H]4CC[C@H]([C@H](C)CCCC(C)C)[C@@]4(C)CC[C@@H]32)C1)C(=O)N[C@@H](Cc1ccc(O)cc1)C(=O)N[C@@H](CN)C(=O)N[C@@H](CCC(C)C)C(N)=O
B19: PTR 6368 (peptide)
peptide: H-RPH[Nva]Y[Dap][hLeu]-NH2
SMILES: CCC[C@H](NC(=O)[C@H](Cc1c[nH]cn1)NC(=O)[C@@H]1CCCN1C(=O)[C@@H](N)CCCNC(=N)N)C(=O)N[C@@H](Cc1ccc(O)cc1)C(=O)N[C@@H](CN)C(=O)N[C@@H](CCC(C)C)C(N)=O
B20: PTR 6344 (peptide)
peptide: Cholesteryloxycarbonyl-KKKRPR[Nva]Y[Dap][hLeu]-NH2
SMILES: CCC[C@H](NC(=O)[C@H](CCCNC(=N)N)NC(=O)[C@@H]1CCCN1C(=O)[C@H](CCCNC(=N)N)NC(=O)[C@H](CCCCN)NC(=O)[C@H](CCCCN)NC(=O)[C@H](CCCCN)NC(=O)O[C@H]1CC[C@@]2(C)C(=CC[C@H]3[C@@H]4CC[C@H]([C@H](C)CCCC(C)C)[C@@]4(C)CC[C@@H]32)C1)C(=O)N[C@@H](Cc1ccc(O)cc1)C(=O)N[C@@H](CN)C(=O)N[C@@H](CCC(C)C)C(N)=O

The target of the assay is protein kinase B (PKB). Nature of the assay: cell-based or functional assay.
For the molecule B1, the “IC50, in vitro kinase assay PKB” value worked out at 1400 nM. The result for B2 reads 360 nM; that for B3, 1000 nM; that for B4, 2000 nM. With B5, the “IC50, in vitro kinase assay PKB” value amounted to 170 nM.

Consider B6, for which the “IC50, in vitro kinase assay PKB” value was more than 10000 nM. The result for B7 reads more than 10000 nM; that for B8, more than 10000 nM; that for B9, 2000 nM. Turning to B10, the “IC50, in vitro kinase assay PKB” value worked out at 1000 nM.

Turning to B11, the “IC50, in vitro kinase assay PKB” value came to 200 nM.

As for B12, the “IC50, in vitro kinase assay PKB” value was more than 10000 nM. To B13 belongs 1000 nM. The result for B14 reads 100 nM; that for B15, 200 nM; that for B16, 200 nM. The result for B17 reads more than 10000 nM; that for B18, 2000 nM. In the case of B19, the “IC50, in vitro kinase assay PKB” value is more than 10000 nM.

As to B20, the “IC50, in vitro kinase assay PKB” value is 300 nM.
